The source of these data is patent US20170369590A1 (Genmab, published 2017).

The target of experiment [1] is T1, HER2ECDHis (human, UniProt P04626 23-653, biotinylated in the cross-block ELISA (sites not given)).
T1 construct: range 1-653; expressed in HEK-293F; also called soluble HER2; biotinylated HER2ECDHis
In words: ELISA; competitor 098. (In general: ELISA stands for enzyme-linked immunosorbent assay.)

For experiment [2], the target named is T1, HER2ECDHis. In words: ELISA; competitor F5.
Protocol: (§1) Next, the ELISA wells were washed with PBST (PBS supplemented with 0.05% Tween-20 [Sigma-Aldrich, Zwijndrecht, The Netherlands]) and blocked for one hour at room temperature (RT) with PBSTC (PBST supplemented 2% [v/v] chicken serum [Gibco, Paisley, Scotland]). The ELISA wells were then washed with PBST and incubated for one hour at RT with HER2ECDHis serially diluted in PBSTC (0.25-2 μg/mL in 2-fold dilutions). […] The plate was thereafter washed with PBST and incubated for one hour with 0.1 μg/mL Streptavidin-poly-HRP (Sanquin, Amsterdam, The Netherlands) diluted in PBST. After washing, the reaction was visualized through a 15 minutes incubation with 2,2′-azino-bis (3-ethylbenzothiazoline-6-sulfonic acid) (ABTS: one ABTS tablet diluted in 50 mL ABTS buffer (Roche Diagnostics, Almere, The Netherlands)) at RT protected from light. The colorization was stopped by adding an equal volume of oxalic acid (Sigma-Aldrich, Zwijndrecht, The Netherlands). Fluorescence at 405 nm was measured on a microtiter plate reader (Biotek Instruments, Winooski, USA).
(§2) Each HER2 antibody was coated to the ELISA wells at the sub-optimal dose that was determined as described above. After blocking of the ELISA wells, the wells were incubated with the predetermined concentration of 1 μg/mL biotinylated HER2ECDHis in the presence or absence of an excess of a second (competitor) HER2 antibody. The ELISA was then performed as described above. […] Percentage competition was then determined as 100 minus the percentage of inhibition.
Experiment [3] has as its target T1, HER2ECDHis. In words: ELISA; competitor tras.
Protocol: as §1, §2
The target of experiment [4] is T1, HER2ECDHis. The experiment can be described thus: ELISA; competitor C1.
Protocol: as §1, §2
Experiment [5] has as its target T1, HER2ECDHis. In words: ELISA; competitor 159.
Protocol: as §1, §2
For experiment [6], the target named is T1, HER2ECDHis. In words: ELISA; competitor 153.
Protocol: as §1, §2
Experiment [7] concerns the target T1, HER2ECDHis. The experiment can be described thus: ELISA; competitor 132.
Protocol: as §1, §2
The target in experiment [8] is T2, human epidermal growth factor receptor 2 (HER2), membrane-bound on cells (human, UniProt P04626 23-1255). The experiment can be described thus: cell-based or functional assay.
Experiment [9] addresses T1, HER2ECDHis. In words: ELISA; competitor pert.
Protocol: as §1, §2
Experiment [10] concerns the target T2, human epidermal growth factor receptor …. In words: cell-based or functional assay. This is another data set of the same source.
The target in experiment [11] is T1, HER2ECDHis. In words: ELISA; competitor 127.
Protocol: as §1, §2
Experiment [12] concerns the target T2, human epidermal growth factor receptor …. The experiment can be described thus: cell-based or functional assay. The source holds these as a separate data set.
Experiment [13] deals with T1, HER2ECDHis. In words: ELISA; competitor 050.
Protocol: as §1, §2
For experiment [14], the target named is T1, HER2ECDHis. The experiment can be described thus: ELISA; competitor 084.
Protocol: as §1, §2
In experiment [15] the target is T1, HER2ECDHis. In words: ELISA; competitor 091.
Protocol: as §1, §2
In experiment [16] the target is T1, HER2ECDHis. The experiment can be described thus: ELISA; competitor 169.
Protocol: as §1, §2
Experiment [17] concerns the target T1, HER2ECDHis. The experiment can be described thus: ELISA; competitor 025.
Protocol: as §1, §2
The target of experiment [18] is T1, HER2ECDHis. The experiment can be described thus: ELISA; competitor 129.
Protocol: as §1, §2

Residue numbers refer to the chain shown, from its start.

B1: HuMab 132 (antibody, V domains shown)
VH: QVQLVQSGAEVKKPGASVKVSCKASGYTFTSYGISWVRQAPGQGLEWMGWISAYNGNSNYVQKFQGRVTMTTDTTTSTAYMELRSLTSDDTAVYYCAREYSYDSGTYFYYGMDVWGQGTTVTVSS
VL: EIVLTQSPATLSLSPGERATLSCRASQSVSSYLAWYQQKPGQAPRLLIYDASNRATGIPARFSGSGSGTDFTLTISSLEPEDFAVYYCQQRSNWPMYTFGQGTKLEIK
B1: the “% binding vs no competitor” value is 309% with HER2ECDHis [1]; 379% with HER2ECDHis [2]; 353% with HER2ECDHis [3]; 422% in the experiment with HER2ECDHis [4]; 131% in the experiment with HER2ECDHis [5]; 41% in the experiment with HER2ECDHis [6]. Moreover, the results for the “% binding vs no competitor” value with HER2ECDHis [7], with HER2ECDHis [9] and in the experiment with HER2ECDHis [11] were 32%, 288% and 30%, respectively. Besides, the “% cells killed, AU565, anti-kappa-ETA'-conjugated” value (shortened to “% cells killed, AU565”) in experiment [8] amounted to 61.6%. Moreover, the “EC50 of cell kill, AU565, anti-kappa-ETA'-conjugated” value (“EC50 of cell kill, AU565” for short) in [8] came to 0.0394 µg/mL. Moreover, the “EC50, fab-CypHer5E internalization, AU565” value in experiment [10] worked out at 0.0114 µg/mL. For the same molecule, the “Maximal MFI, fab-CypHer5E internalization, AU565” value (shortened to “Maximal MFI”) in experiment [10] is 112000 MFI.

B2: HuMab 159 (antibody, V domains shown)
VH: EVQLVQSGAEVKKPGESLKISCKGSGYNFTSYWIGWVRQMPGKGLEWMGIIYPGDSDTRYSPSFQGQVTISADKSISTAYLQWSSLKASDTAMYYCARWGTYYDILTGYFNWFDPWGQGTLVTVSS
VL: DIQMTQSPSSLSASVGDRVTITCRASQGISSWLAWYQQKPEKAPKSLIYAASSLQSGVPSRFSGSGSGTDFTLTISSLQPEDFATYYCQQYYIYPWTFGQGTKVEIK
notes: also called TH1014-159; PC1014-159
Take B2: the “% binding vs no competitor” value worked out at 11% with HER2ECDHis [1]; 86% in the experiment with HER2ECDHis [2]; 111% in the experiment with HER2ECDHis [3]; 96% with HER2ECDHis [4]; 6% with HER2ECDHis [5]; 40% with HER2ECDHis [6]. For the same molecule, the “% binding vs no competitor” value with HER2ECDHis [7] worked out at 79%; with HER2ECDHis [9], 112%; with HER2ECDHis [11] it was 15%. The “% cells killed, AU565” value in experiment [8] was found to be 70.3%. Further, in experiment [8], the “EC50 of cell kill, AU565” value was 0.0349 µg/mL. For the same molecule, the “Maximal MFI” value in [10] is 92400 MFI.

B3: HuMab 153 (antibody, V domains shown)
VH: QVQLVESGGGVVQPGRSLRLSCAASGFTFSDYVIHWVRQAPGKGLEWVTVISYDGSNKYYADSVKGRFTISRDNSKNTLYLQMNSLSAEDTAMYYCARGGITGTTGVFDYWGQGTLVTVSS
VL: B2 VL with A50D, S67Y, T72S, T85I, Y92K, I93S, W96I, K103R, V104L
On to B3, for which, in [12], the “% cells killed, A431, anti-kappa-ETA'-conjugated” value came to 82.4%. Further, the “EC50 of cell kill, A431, anti-kappa-ETA'-conjugated” value in experiment [12] was roughly 0.0101 µg/mL. The “% binding vs no competitor” value with HER2ECDHis [1] was 115%; in the experiment with HER2ECDHis [2], 96%; with HER2ECDHis [3], 134%; in the experiment with HER2ECDHis [4] it was 257%; with HER2ECDHis [5] it was 23%; with HER2ECDHis [6] it was 28%. The “% binding vs no competitor” value in the experiment with HER2ECDHis [13] turned out to be 103%; with HER2ECDHis [7], 33%; with HER2ECDHis [14] it was 107%; in the experiment with HER2ECDHis [9], 121%; with HER2ECDHis [15], 102%; with HER2ECDHis [16], 111%. Besides, the results for the “% binding vs no competitor” value with HER2ECDHis [17], in the experiment with HER2ECDHis [11] and with HER2ECDHis [18] were 97%, 27% and 106%, respectively. Moreover, the “% cells killed, AU565” value in [8] amounted to 60.3%. Also, the “EC50 of cell kill, AU565” value in [8] amounted to 0.0323 µg/mL. Further, the “EC50, fab-CypHer5E internalization, AU565” value in [10] was roughly 0.0149 µg/mL. Besides, in [10], the “Maximal MFI” value was 87500 MFI.

B4: HuMab 098 (antibody, V domains shown)
VH: EVQLLESGGGLVQPGGSLRLSCAASGFTFSNYGMSWVRQAPGKGLEWVSAISGSAYSTYYADSVKGRFTISRDNSKNTLWLQMNSLRAEDTAVYYCAKAHYHGSGSYYTLFDYWGQGTLVTVSS
VL: B2 VL with Y92N, I93S, W96Y, V104L
notes: also called TH1014-098; PC1014-098
B4: the “% cells killed, A431, anti-kappa-ETA'-conjugated” value in experiment [12] turned out to be 87.2%. Moreover, the “EC50 of cell kill, A431, anti-kappa-ETA'-conjugated” value in experiment [12] was 0.00165 µg/mL. Moreover, the “% binding vs no competitor” value with HER2ECDHis [1] was 17%; with HER2ECDHis [2], 96%; in the experiment with HER2ECDHis [3], 107%; with HER2ECDHis [4] it was 125%; with HER2ECDHis [5] it was 9%; with HER2ECDHis [6], 110%. In addition, the “% binding vs no competitor” value was 100% in the experiment with HER2ECDHis [13]; 142% with HER2ECDHis [7]; 103% in the experiment with HER2ECDHis [14]; 104% with HER2ECDHis [9]; 104% with HER2ECDHis [15]; 102% with HER2ECDHis [16]. For the same molecule, the “% binding vs no competitor” value worked out at 108% in the experiment with HER2ECDHis [17], 21% with HER2ECDHis [11] and 107% in the experiment with HER2ECDHis [18]. Further, in [8], the “% cells killed, AU565” value was 58.7%. Moreover, the “EC50 of cell kill, AU565” value in experiment [8] came to 0.0121 µg/mL. Besides, the “EC50, fab-CypHer5E internalization, AU565” value in [10] is 0.0138 µg/mL. Moreover, the “Maximal MFI” value in experiment [10] was found to be 135000 MFI.

B5: HuMab 127 (antibody, V domains shown)
VH: EVQLVQSGAEVKKPGESLTISCKGSGYSFSIYWIGWVRQMPGKGLEWMGIIFPGDSDIRYSPSFQGQVTISADKSISTAYLQWSSLKASDTAMYYCARQPGDWSPRHWYFDLWGRGTLVTVSS
VL: VIWMTQSPSLLSASTGDRVTISCRMSQGISSYLAWYQQKPGKAPELLIYAASTLQSGVPSRFSGSGSGTDFTLTISYLQSEDFATYYCQQYYSFPLTFGGGTKVEIK
As for B5, the “% binding vs no competitor” value in the experiment with HER2ECDHis [1] worked out at 58%; with HER2ECDHis [2] it was 88%; with HER2ECDHis [3], 102%; in the experiment with HER2ECDHis [4] it was 112%; with HER2ECDHis [5], 8%; with HER2ECDHis [6], 21%. In addition, the “% binding vs no competitor” value stood at 44% with HER2ECDHis [7] and 11% with HER2ECDHis [11]. The “% cells killed, AU565” value in experiment [8] came to 69%. Besides, the “EC50 of cell kill, AU565” value in [8] turned out to be 0.0345 µg/mL. Besides, the “EC50, fab-CypHer5E internalization, AU565” value in experiment [10] was roughly 0.00968 µg/mL. Also, the “Maximal MFI” value in [10] was 138000 MFI.
